Measurements from the PETadex activity labels (doi:10.1101/2025.08.30.673199).

B1: unnamed (protein)
chain: MKAPLFKLAAFTLGVSLSSVALATNPGGGGAGSNPDTGTGFPGVSSFSADGSFATTSGSAGLSCTVFRPSTLGANGLKHPIIVWGNGTTASPSTYSGILEHWASHGFVVIAANTSNAGTGQDMLNCVDYLTTQNNRSTGTYANKLDLNRIGAAGHSQGGGGTIMAGQDYRIKVTAPFQPYTIGLGHNSSSQSNQNGPMFLMTGSADTIASPTLNALPVYNRANVPVFWGELSGASHFEPVGSAGDFRGPSTAWFRYHLMDDASAEDTFYGSNADLCTDNDWDVRRKGIN
B2: unnamed (protein)
chain: MKAPLFKLAAFTLGVSLSSVALATNPGGGGAGSNPDTGTGFPGVSSFSADGSFATTSGSAGLSCTVFRPSTLGANGLKHPIIVWGNGTTASPSTYSGILEHWASHGFVVIAANTSNAGTGQDMLNCVDYLTTQNNRSTGTYANKLDLNRIGAAGHSQGGGGTIMAGQDYRIKVTAPFQPWTIGLGHNSSSQSNQNGPMFLMTGSADTIASPTLSALPIYNRANVPVFWGELSGASHFEPVGSAGDFRGPSTAWFRYHLMDDASAEDTFYGSNCDLCTDNDWDVRRKGIN
B3: unnamed (protein)
chain: MKAPLFKLAAFTLGVSLSSVALATNPGGGGAGSNPDTGTGFPGVSSFSADGSFATTSGSAGLSCTVFRPSTLGANGLKHPIIVWGNGTTASPSTYSGILEHWASHGFVVIAANTSNAGTGQDMLNAVDYLTTQNNRSTGTYANKLDLNRIGAAGHSQGGGGTIMAGQDYRIKVTAPFQPYTIGLGHNSSSQSNQNGPMFLMTGSADTIASPTLNALPVYNRANVPVFWGELSGASHFEPVGSAGDFRGPSTAWFRYHLMDDASAEDTFYGSNCDLCTDNDWDVRRKGIN
B4: unnamed (protein)
chain: MKAPLFKLAAFTLGVSLSSVALATNPGGGGAGSNPDTGTGFPGVSSFSADGSFATTSGSAGLSCTVFRPSTLGANGLKHPIIVWGNGTTASPSTYSGILEHWASHGFVVIAANTSNAGTGQDMLNCVDYLTTQNNRSTGTYANKLDLNRIGAAGHSQGGGGTIMAGQDYRIKVTAPFQPYTIGLAHNSSSQSNQNGPMFLMTGSADTIASPTLNALPVYNRANVPVFWGELSGASHFEPVGSAGDFRGPSTAWFRYHLMDDASAEDTFYGSNCDLCTDNDWDVRRKGIN
B5: unnamed (protein)
chain: MKAPLFKLAAFTLGVSLSSVALATNPGGGGAGSNPDTGTGFPGVSSFSADGSFATTSGSAGLSCTVFRPSTLGANGLKHPIIVWGNGTTASPSTYSGILEHWASHGFVVIAANTSNAGTGQDMLNCVDYLTTQNNRSTGTYANKLDLNRIGAAGHSQGGGGTIMAGQDYRIKVTAPFQPWTIGLGHNSSSQSNQNGPMFLMTGSADTIASPTLHALPFYNRANVPVFWGELSGASHFEPVGSAGDFRGPSTAWFRYHLMDDASAEDTFYGSNCDLCTDNDWDVRRKGIN
B6: unnamed (protein)
chain: MKAPLFKLAAFTLGVSLSSVALATNPGGGGAGSNPDTGTGFPGVSSFSADGSFATTSGSAGLSCTVFRPSTLGANGLKHPIIVWGNGTTASPSTYSGILEHWASHGFVVIAANTSNAGTGQDMLNCVDYLTTQNNRSTGTYANKLDLNRIGAAGHSQGGGGTIMAGQDYRIKVTAPFQPYTIGLGANSSSQSNQNGPMFLMTGSADTIASPTLNALPVYNRANVPVFWGELSGASHFEPVGSAGDFRGPSTAWFRYHLMDDASAEDTFYGSNCDLCTDNDWDVRRKGIN
B7: unnamed (protein)
chain: MKAPLFKLAAFTLGVSLSSVALATNPGGGGAGSNPDTGTGFPGVSSFSADGSFATTSGSAGLSCTVFRPSTLGANGLKHPIIVWGNGTTASPSTYSGILEHWASHGFVVIAANTSNAGTGQDMLNCVDYLTTQNNRSTGTYANKLDLNRIGAAGHSMGGGGTIMAGQDYRIKVTAPFQPYTIGLGHNSSSQSNQNGPMFLMTGSADTIASPTLNALPVYNRANVPVFWGELSGASHFEPVGSAGDFRGPSTAWFRYHLMDDASAEDTFYGSNCDLCTDNDWDVRRKGIN
B8: unnamed (protein)
chain: MKAPLFKLAAFTLGVSLSSVALATNPGGGGAGSNPDTGTGFPGVSSFSADGSFATTSGSAGLSCTVFRPSTLGANGLKHPIIVWGNGTTASPSTYSGILEHWASHGFVVIAANTSNAGTGQDMLNCVDYLTTQNNRSTGTYANKLDLNRIGAAGHSQGGGGTIMAGQDYRIKVTAPFQPYTIGLGHNSSSQSNQNGPMFLMTGSADTIASPTLNALPVYNRANVPVFWGELSGASHIEPVGSAGDFRGPSTAWFRYHLMDDASAEDTFYGSNCDLCTDNDWDVRRKGIN
B9: unnamed (protein)
chain: MKAPLFKLAAFTLGVSLSSVALATNPGGGGAGSNPDTGTGFPGVSSFSADGSFATTSGSAGLSCTVFRPSTLGANGLKHPIIVWGNGTTASPSTYSGILEHWASHGFVVIAANTSNAGTGQDMLNCVDYLTTQNNRSTGTYANKLDLNRIGAAGHSQGGGGTIMAGQDYRIKVTAPFQPWTIGLGHNSSSQSNQNGPMFLMTGSADTIASPTLNALPVYNRANVPVFWGELSGASHFEPVGSAGDFRGPSTAWFRYHLMDDASAEDTFYGSNCDLCTDNDWDVRRKGIN
B10: unnamed (protein)
chain: MKAPLFKLAAFTLGVSLSSVALATNPGGGGAGSNPDTGTGFPGVSSFSADGSFATTSGSAGLSCTVFRPSTLGANGLKHPIIVWGNGTTASPSTYSGILEHWASHGFVVIAANTSNAGTGQDMLNCVDYLTTQNNRSTGTYANKLDLNRIGAAGHSQGGGGTIMAGQDYRIKVTAPFQPYTIALGHNSSSQSNQNGPMFLMTGSADTIASPTLNALPVYNRANVPVFWGELSGASHFEPVGSAGDFRGPSTAWFRYHLMDDASAEDTFYGSNCDLCTDNDWDVRRKGIN
B11: unnamed (protein)
chain: MKAPLFKLAAFTLGVSLSSVALATNPGGGGAGSNPDTGTGFPGVSSFSADGSFATTSGSAGLSCTVFRPSTLGANGLKHPIIVWGNGTTASPSTYSGILEHWASHGFVVIAANTSNAGTGQDMLNCVDYLTTQNNRSTGTYANKLDLNRIGAAGHSQGGGGTIMAGQDYRIKVTAPFQPYTIGLGHNSSSQSNQNGPMFLMTGSADTIASPTLNALPVYNRANVPVFWGELSGASAFEPVGSAGDFRGPSTAWFRYHLMDDASAEDTFYGSNCDLCTDNDWDVRRKGIN
B12: unnamed (protein)
chain: MKAPLFKLAAFTLGVSLSSVALATNPGGGGAGSNPDTGTGFPGVSSFSADGSFATTSGSAGLSCTVFRPSTLGANGLKHPIIVWGNGTTASPSTYSGILEHWASHGFVVIAANTSNAGTGQDMLNCVDYLTTQNNRSTGTYANKLDLNRIGAAGHSQGGGGTIMAGQDYRIKVTAPFQPYTIGAGHNSSSQSNQNGPMFLMTGSADTIASPTLNALPVYNRANVPVFWGELSGASHFEPVGSAGDFRGPSTAWFRYHLMDDASAEDTFYGSNCDLCTDNDWDVRRKGIN

Substrate: PET
Test: Proxy for plastic degradation [Released monomer concentration (HPLC/LC-MS) (TPA+MHET+BHET)]
Conditions: pH 9

| Protein | Proxy for plastic degradation [µM] |
| --- | --- |
| B1 | 10 |
| B2 | 105 |
| B3 | 250 |
| B4 | 540 |
| B5 | 85 |
| B6 | 120 |
| B7 | 315 |
| B8 | 1280 |
| B9 | 195 |
| B10 | 600 |
| B11 | 10 |
| B12 | 820 |
